We go through 2 molecules from patent US20250369982A1, “METHODS OF DETECTING DDR1 PHOSPHORYLATION” (IncendiaTherapeutics, Inc., priority 2022, published 2025).

Data set [1] has as its target T1, DDR1 (Homo sapiens, UniProt Q08345).
T1 construct: Cultured T47D breast cancer cells were serum starved for 16 hours; endogenous in cells; host or cells: T47D breast cancer cells
Put plainly: Inhibition of collagen-induced DDR1 phosphorylation in T47D cells (Jess immunoassay). It is filed as cell-based. To be noted: serum-starved T47D cells, 2 h pretreatment, 50 μg/ml human collagen I for 90 minutes. The protocol:
Cells treated with 200 nM of 2.45-IN [2-(4-Bromo-2-oxo-1′-(1H-pyrazolo[4,3-b]pyridine-5-carbonyl)spiro[indoline-3,4′-piperidin]-1-yl)-N-(2,2,2-trifluoroethyl) acetamide] were used as positive control for inhibition of DDR1 phosphorylation. Cell lysate was then analyzed via Jess immunoassay (ProteinSimple).
Serum-starved T47D cells were pretreated for two hours with increasing concentrations of monoclonal antibody or IgG control, followed by stimulation with 50 μg/ml of human collagen I for 90 minutes.

The nature of data set [2]: Pharmacokinetic profiles of anti-DDR1 mAbs in mice (ELISA of circulating antibody). The format is in vivo, mouse. To be noted: female C57B16JrJ mice, intraperitoneal, 10 mg/kg; for Cmax: circulating free and partially bound antibody. The procedure:
To evaluate the pharmacokinetic profiles of anti-DDR1 mAbs, mAbs were administered intraperitoneally to female C57B16JrJ mice at a dose of 10 mg/kg, serial blood sampling was performed over time (FIG. 4A), and ELISA was used to measure circulating free and partially bound antibody. […] Further, as shown in FIG. 4E and Table S1 below, the maximal circulating (free and partially bound) concentrations of each mAb were higher than the concentration required to bind to target (as shown by the surface plasmon resonance results of mAb binding to mouse DDR1 extracellular domain; see Table S2 below). Moreover, the maximal circulating (free and partially bound) concentrations of mAb #9H1 WT IgG1 were higher than the in vitro concentration required to inhibit Collagen I-induced phosphorylation of DDR1 in T47D cells (see FIG. 1).
(In general: In an ELISA, binding on a coated surface is turned into a signal by an enzyme label.)

Where two headings read alike, the source gives them in different places.

T1 sequence (Q08345 19-913): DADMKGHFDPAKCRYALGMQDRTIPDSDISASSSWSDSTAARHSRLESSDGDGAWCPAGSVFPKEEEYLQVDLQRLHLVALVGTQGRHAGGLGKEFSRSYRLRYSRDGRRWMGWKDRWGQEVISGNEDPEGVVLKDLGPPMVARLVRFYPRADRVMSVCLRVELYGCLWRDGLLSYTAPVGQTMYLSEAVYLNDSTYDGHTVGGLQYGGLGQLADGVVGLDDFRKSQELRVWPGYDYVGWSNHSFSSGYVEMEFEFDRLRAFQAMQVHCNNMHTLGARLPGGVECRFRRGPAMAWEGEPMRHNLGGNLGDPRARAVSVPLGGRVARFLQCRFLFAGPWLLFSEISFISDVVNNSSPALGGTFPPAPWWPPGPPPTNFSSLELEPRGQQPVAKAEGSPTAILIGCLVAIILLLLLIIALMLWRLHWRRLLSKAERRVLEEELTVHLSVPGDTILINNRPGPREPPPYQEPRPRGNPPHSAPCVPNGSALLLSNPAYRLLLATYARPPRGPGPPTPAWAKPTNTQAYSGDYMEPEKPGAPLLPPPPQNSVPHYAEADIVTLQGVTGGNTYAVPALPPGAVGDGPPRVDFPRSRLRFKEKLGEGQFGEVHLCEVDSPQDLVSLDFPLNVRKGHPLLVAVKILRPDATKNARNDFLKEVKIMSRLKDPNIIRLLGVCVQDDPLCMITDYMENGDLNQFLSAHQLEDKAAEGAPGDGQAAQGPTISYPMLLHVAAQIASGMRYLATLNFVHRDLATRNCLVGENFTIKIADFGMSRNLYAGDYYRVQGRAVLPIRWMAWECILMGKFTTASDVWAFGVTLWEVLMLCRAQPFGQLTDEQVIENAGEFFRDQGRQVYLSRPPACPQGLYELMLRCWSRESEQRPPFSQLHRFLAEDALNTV

B1: rabbit mAb #33: rabbit anti-DDR1 monoclonal antibody, light chain SEQ ID NO: 164, heavy chain SEQ ID NO: 165 (antibody)
heavy: QSVEESGGRLVTPGGSLTLTCTVSGFSLSSYDMSWVRQAPGKGLEWIGISWNSGFVDYASWAKGRFSISKTSTTVDLKITSPTTEDTATYFCARLGADDIYYFNLWGPGTLVTISSGQPKAPSVFPLAPCCGDTPSSTVTLGCLVKGYLPEPVTVTWNSGTLTNGVRTFPSVRQSSGLYSLSSVVSVTSSSQPVTCNVAHPATNTKVDKTVAPSTCSKPTCPPPELLGGPSVFIFPPKPKDTLMISRTPEVTCVVVDVSQDDPEVQFTWYINNEQVRTARPPLREQQFNSTIRVVSTLPIAHQDWLRGKEFKCKVHNKALPAPIEKTISKARGQPLEPKVYTMGPPREELSSRSVSLTCMINGFYPSDISVEWEKNGKAEDNYKTTPAVLDSDGSYFLYSKLSVPTSEWQRGDVFTCSVMHEALHNHYTQKSISRSPGK
light: ELVMTQTPASVEAAVGGTVTIKCQASETISSRLAWYQQKPGQPPKLLIYQASKLPSGVPSRFKGTGSGTEYTLTISDLECADAATYYCQGCYYGGGSFYDSAFGGGTEVVVKGDPVAPTVLIFPPAADQVATGTVTIVCVANKYFPDVTVTWEVDGTTQTTGIENSKTPQNSADCTYNLSSTLTLTSTQYNSHKEYTCKVTQGTTSVVQSFNRGDC
As for B1, the “inhibition of collagen I-induced phosphorylation of DDR1 (in words)” value in data set [1] is on record as “able to inhibit”.

B2: #33 inert IgG1: rabbit mAb #33 heavy and light chain variable domains fused to human IgG1 constant domains; SEQ ID NOs: 23 and 24 (protein)
chain 1: ELVMTQTPASVEAAVGGTVTIKCQASETISSRLAWYQQKPGQPPKLLIYQASKLPSGVPSRFKGTGSGTEYTLTISDLECADAATYYCQGCYYGGGSFYDSAFGGGTEVVVKRTVAAPSVFIFPPSDEQLKSGTASVVCLLNNFYPREAKVQWKVDNALQSGNSQESVTEQDSKDSTYSLSSTLTLSKADYEKHKVYACEVTHQGLSSPVTKSFNRGEC
chain 2: QSVEESGGRLVTPGGSLTLTCTVSGFSLSSYDMSWVRQAPGKGLEWIGISWNSGFVDYASWAKGRFSISKTSTTVDLKITSPTTEDTATYFCARLGADDIYYFNLWGPGTLVTISSASTKGPSVFPLAPSSKSTSGGTAALGCLVKDYFPEPVTVSWNSGALTSGVHTFPAVLQSSGLYSLSSVVTVPSSSLGTQTYICNVNHKPSNTKVDKRVEPKSCDKTHTCPPCPAPEAEGAPSVFLFPPKPKDTLMISRTPEVTCVVVDVSHEDPEVKFNWYVDGVEVHNAKTKPREEQYNSTYRVVSVLTVLHQDWLNGKEYKCKVSNKALPSSIEKTISKAKGQPREPQVYTLPPSREEMTKNQVSLTCLVKGFYPSDIAVEWESNGQPENNYKTTPPVLDSDGSFFLYSKLTVDKSRWQQGNVFSCSVMHEALHNHYTQKSLSLSPGK
For orientation: Cmax means the maximum level reached in the sampled fluid or tissue. As to B2, in data set [2], the “exposure over 168 hours (in words)” value is reported as “comparable to expected exposures for IgG1”, the tmax was determined as 48 h and the Cmax was 131.82 µg/mL. Moreover, the Cmax in data set [2] (read-out: Cmax) was 650 nM.
